Laboratory results taken from US20210317225A1 (Genmab, published 2021).
Residue numbers refer to the chain shown, from its start. Values belong to the binder of their own block, whether it stands above or below them.

Columns and labels:
[1] = biological target: T1, Human CD137 shuffle 2 (amino acids 139-161 replaced by wild boar CD137) (human, amino acids 139-161 from wild …, UniProt Q07011 24-255); experiment: flow cytometry on transfected HEK293T-17 cells, 1 µg/mL antibody
T1 construct: also called shuffle construct 2
T1 chain: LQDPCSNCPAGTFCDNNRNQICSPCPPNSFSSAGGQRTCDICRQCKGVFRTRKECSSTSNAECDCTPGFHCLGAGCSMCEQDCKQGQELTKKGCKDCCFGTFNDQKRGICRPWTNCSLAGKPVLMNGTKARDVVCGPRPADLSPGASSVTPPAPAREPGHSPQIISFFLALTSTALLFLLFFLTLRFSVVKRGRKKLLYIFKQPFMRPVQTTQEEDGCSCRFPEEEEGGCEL
Method: (§1) 3×10⁶ HEK293T-17 cells were seeded in T75 culture flasks (Greiner Bio-One, cat. no. 658175) in 20 mL RPMI 1640 GlutaMAX medium containing 10% FCS (Biochrom, cat. no. S 0115). After O/N incubation, cells were transiently […] with expression vectors encoding the shuffle constructs or the wild boar, African elephant or human CD137 downstream of a constitutively active human elongation factor-1 alpha (EF-1 alpha) promotor using TransIT®-LT1 Transfection Reagent, Mirus Bio (VWR International, cat. no. 731-0029), according to the manufacturer's instructions. The next day, cells were harvested using 1.5 mL Accutase (Sigma Aldrich, cat. no. A6964) (incubation at 37° C. for 5 min.) and flow cytometry was performed, essentially as described in Example 4, to measure surface expression of the shuffle constructs and the human, African elephant and wild boar CD137 and to measure binding of the antibody clones to the different shuffle constructs. To measure cell surface expression of the constructs, transduced cells were incubated with 1 μg/mL goat polyclonal anti-human CD137 (R&D Systems, cat. no. AF838) in FACS buffer (D-PBS supplemented with 5 mM EDTA [Sigma Aldrich, cat. no. 03690] and 5% (v/v) fetal bovine serum [FBS, Biochrom, cat. no. S 0115]) (4° C., 20 min.), followed by incubation with APC-labeled anti-goat IgG (H+L) (R&D Systems, cat. no. F0108) (4° C., 20 min.). Binding of the different CD137 antibody clones to cells expressing the shuffle constructs was measured by incubation of the transduced cells with 1 μg/mL of the antibody clones, followed by APC-labeled AffiniPure F(ab′)2 Fragment (1:50 final dilution; Jackson, cat. no. 109-136-127).

[2] = biological target: T2, Human CD137 shuffle 5 (amino acids 48-88 replaced by African elephant CD137) (human, amino acids 48-88 from African …, UniProt Q07011 24-255); experiment: as above
T2 construct: also called shuffle construct 5
T2 chain: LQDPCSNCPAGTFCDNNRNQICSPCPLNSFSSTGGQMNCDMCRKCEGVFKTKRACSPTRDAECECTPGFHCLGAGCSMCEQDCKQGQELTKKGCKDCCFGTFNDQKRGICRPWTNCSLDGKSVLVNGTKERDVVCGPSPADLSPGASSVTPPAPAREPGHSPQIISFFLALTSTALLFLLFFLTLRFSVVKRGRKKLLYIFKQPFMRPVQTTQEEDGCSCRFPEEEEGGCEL
Method: as §1

[3] = biological target: T3, Human CD137 shuffle 1 (amino acids 162-186 replaced by wild boar CD137) (human, amino acids 162-186 from wild …, UniProt Q07011 24-255); experiment: as above
T3 construct: also called shuffle construct 1
T3 chain: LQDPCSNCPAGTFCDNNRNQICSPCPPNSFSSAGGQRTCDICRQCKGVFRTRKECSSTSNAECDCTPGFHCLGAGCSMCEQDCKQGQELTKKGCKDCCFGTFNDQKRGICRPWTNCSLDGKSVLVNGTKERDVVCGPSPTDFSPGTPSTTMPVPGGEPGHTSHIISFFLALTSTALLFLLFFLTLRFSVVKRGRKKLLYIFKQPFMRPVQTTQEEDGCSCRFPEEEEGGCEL
Method: as §1

Human CD137 (TNR9_Human) [4] = biological target: T4, Human CD137 (TNR9_Human) (human, UniProt Q07011 24-255); experiment: flow cytometry, HEK293-T17 cells transiently transfected with human CD137, antibody at 1 µg/mL, APC-labeled F(ab')2 secondary
T4 construct: Full-length human CD137 expressed on HEK293T-17, NF-kB/293/GFP-Luc or K562 cells, or native on T cells; also called hCD137 wt; 4-1BB
Method: (§2) FIG. 4: Binding of CD137 antibody clones to CD137 shuffle constructs expressed on HEK293-T17 cells. HEK293-T17 cells were transfected with the CD137 shuffle constructs, and with human CD137 (hCD137 wt), African elephant of wild boar CD137, as indicated. Binding of the different CD137 antibody clones to these constructs expressed on HEK293-T17 cells was measured by flow cytometry. Staining with polyclonal anti-CD137 antibody is shown as a control.
as §1

[5] = biological target: T5, Human CD137 shuffle 4 (amino acids 89-114 replaced by wild boar CD137) (human, amino acids 89-114 from wild boar, UniProt Q07011 24-255); experiment: flow cytometry on transfected HEK293T-17 cells
T5 construct: also called shuffle construct 4
T5 chain: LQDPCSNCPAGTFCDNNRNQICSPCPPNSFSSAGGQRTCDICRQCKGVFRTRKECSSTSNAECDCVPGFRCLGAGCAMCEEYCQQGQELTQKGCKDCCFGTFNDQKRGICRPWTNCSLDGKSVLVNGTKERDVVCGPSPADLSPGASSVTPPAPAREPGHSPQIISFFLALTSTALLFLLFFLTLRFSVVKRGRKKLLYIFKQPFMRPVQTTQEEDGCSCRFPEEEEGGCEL
Method: as §1

[6] = biological target: T6, Human CD137 shuffle 3 (amino acids 115-138 replaced by wild boar CD137) (human, amino acids 115-138 from wild …, UniProt Q07011 24-255); experiment: flow cytometry on transfected HEK293T-17 cells
T6 construct: also called shuffle construct 3
T6 chain: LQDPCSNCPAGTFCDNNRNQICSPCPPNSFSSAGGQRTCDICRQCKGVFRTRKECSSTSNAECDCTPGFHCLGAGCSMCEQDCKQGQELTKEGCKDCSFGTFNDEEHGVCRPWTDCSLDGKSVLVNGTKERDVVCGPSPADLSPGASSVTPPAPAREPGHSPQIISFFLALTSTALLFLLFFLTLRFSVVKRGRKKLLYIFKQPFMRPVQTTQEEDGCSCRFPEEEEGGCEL
Method: as §1

[7] = biological target: T6, Human CD137 shuffle 3 (amino acids …); experiment: flow cytometry on transfected HEK293T-17 cells, 1 µg/mL antibody
Method: as §1

Human CD137 (TNR9_Human) [8] = biological target: T4, Human CD137 (TNR9_Human); experiment: flow cytometry, HEK293-T17 cells transiently transfected with human CD137, antibody at 1 µg/mL, APC-labeled F(ab')2 secondary [cont.]
Method: as §2, §1

[9] = biological target: T5, Human CD137 shuffle 4 (amino acids …); experiment: flow cytometry on transfected HEK293T-17 cells, 1 µg/mL antibody
Method: as §1

[10] = biological target: T2, Human CD137 shuffle 5 (amino acids …); experiment: flow cytometry on transfected HEK293T-17 cells
Method: as §1

- binding result [1]: binds
- binding result [2]: binds
- binding result [3]: binds
- binding result (Human CD137 (TNR9_Human) [4]): binds
- binding result [5]: no binding (tested: 1 µg/mL)
- binding result [6]: no binding (tested: 1 µg/mL)
B1: CD137 antibody clone 004 (rabbit) (antibody, human IgG1, kappa, V domains shown)
VH: QSLEESGGRLVTPGTPLTLTCTASGFSLSRYDMSWVRQAPGKGLEYIGVISSSGGTNYANWAKGRFTISKTSTTVDLKITSPTTEDTATYFCAREGDYWDFNLWGPGTLVTVSS
VL: AQVLTQTPSSVSAAVGGTVTINCQASQSISNLLAWYQQKPGQPPKLLIYGASTLASGVPSRFSGSGSGTEFTLTISDLESDDAATYYCAGGFPGLDTVAAFGGGTEAVVTR
notes: also called Clone 4; CD137 clone 004

- binding result [1]: binds
- binding result [2]: binds
- binding result [7]: binds
- binding result [3]: binds
- binding result (Human CD137 (TNR9_Human) [8]): binds
- binding result [5]: no binding (tested: 1 µg/mL)
B2: CD137 antibody clone 008 (rabbit) (antibody, human IgG1, kappa, V domains shown)
VH: B1 VH with R30S, V49Y, G55N, N57Y, N60S, G64S
VL: B1 VL with P43R, K45R, G50R, S63K, D81E, V98G, A100T
notes: also called Clone 8; CD137 clone 008

- binding result [1]: binds
- binding result [9]: binds
- binding result [7]: binds
- binding result [3]: binds
- binding result (Human CD137 (TNR9_Human) [8]): binds
- binding result [10]: no binding (tested: 1 µg/mL)
B3: CD137 antibody clone 009 (rabbit) (antibody, human IgG1, kappa, V domains shown)
VH: QSLEESGGRLVTPGTPLTLTCTVSGFSLNDYWMSWVRQAPGKGLEWIGYIDVGGSLYYASWAKGRFTISRTSTTVDLKMTSLTTEDTATYFCARGGLTYGFDLWGPGTLVTVSS
VL: DIVMTQTPASVSEPVGGTVTINCQASEDISSYLAWYQQKPGQRPKRLIYGASDLASGVPSRFSASGSGTEYALTISDLESADAATYYCHYYATISGLGVAFGGGTEVVVKR
notes: also called Clone 9; CD137 clone 009

- binding result [1]: binds
- binding result [9]: binds
- binding result [7]: binds
- binding result [3]: binds
- binding result (Human CD137 (TNR9_Human) [4]): binds
- binding result [10]: no binding (tested: 1 µg/mL)
B4: CD137 antibody clone 006 (rabbit) (antibody, human IgG1, kappa, V domains shown)
VH: QSVEESGGRLVTPGTPLTLTCTVSGFSLSSYAMSWVRQAPGKGLEWIGIISTSGITYYASWAKGRFTISKTSTMVDLKITSPTTEDTATYFCARLNGFDDYVRYFDFWGLGTLVTVSS
VL: AIELTQTPSSVSAAVGGTVTINCQASESIASNLAWYQQKPGQPPKLLIYAASYLASGVPSRFKGSGSGTEYTLTISGVQSADAATYYCQSAFYVSSSDNAFGGGTEVVVKR
notes: also called Clone 6; CD137 clone 006

- binding result [1]: binds
- binding result [2]: binds
- binding result [3]: binds
- binding result (Human CD137 (TNR9_Human) [8]): binds
- binding result [5]: no binding (tested: 1 µg/mL)
- binding result [6]: no binding (tested: 1 µg/mL)
B5: CD137 antibody clone 011 (rabbit) (antibody, human IgG1, kappa, V domains shown)
VH: QSLEESGGRLVTPGTPLTLTCTVSGIDLSSYHMCWVRQAPGKGLEYIGYIAYGGNTYYANWAKGRFTISKTSTTVDLRITSPTTEDTATYFCARGYSEDSYWGLWGPGTLVTVSS
VL: AYDMTQTPASVEAAVGGTVTIKCQASQNIENYLAWYQQKPGQPPKLLIYDTSKLTSGVPSRFSGSGSGTDFTLTISGVQSDDAATYYCQQDYGIIFVDNIFGGGTEVVVKR
notes: also called Clone 11; CD137 clone 011

- binding result [1]: binds
- binding result [9]: binds
- binding result [7]: binds
- binding result [3]: binds
- binding result (Human CD137 (TNR9_Human) [4]): binds
- binding result [10]: no binding (tested: 1 µg/mL)
B6: CD137 antibody clone 002 (rabbit) (antibody, human IgG1, kappa, V domains shown)
VH: QSVEESGGRLVTPGTPLTLTCTVSGFSLTYYAVTWVRQPPGKGLEWIGVIYDNGATAFATWAKGRFTMSKNSTTVALKVTSPTTEDTATYFCARSANNAWSTYSNLWGQGTLVTVSS
VL: DIVMTQTPSSVSAAVGGTVTINCQASEDISSYLSWYQQKLGQPPKLLIYKASTLESGVPSRFKGSGSGTEYTLTISDLESDDAATYYCQSYYSGSISGYGFVFGGGTGVVVKR
notes: also called Clone 2; CD137 clone 002

- binding result [1]: binds
- binding result [9]: binds
- binding result [7]: binds
- binding result [3]: binds
- binding result (Human CD137 (TNR9_Human) [8]): binds
- binding result [10]: no binding (tested: 1 µg/mL)
B7: CD137 antibody clone 010 (rabbit) (antibody, human IgG1, kappa, V domains shown)
VH: QSVEESGGRLVTPGTPLTLTCTVSGFSLSTYAMIWVRQAPGKGLEWIGVVYDNGYISHATWVKGRFTISKTSTTVGLEITSPTTEDTATYFCARSADGSWSTYFNLWGQGTLVTVSS
VL: DIVMTQTPASVEAAVGGTVTIKCQASESISNYLAWYQQKPGQPPKLLIYKASTLASGVSSRFKGSGSGTEFTLTISDLESADAATYYCQTNYCCSSSDNGFAFGGGTEVVVKR
notes: also called Clone 10; CD137 clone 010
